Substitutions are numbered along the chain they refer to.
B1: 012517-A12 (protein)
chain: MALPVTALLLPLALLLHAARPLEGKPIPNPLLGLDSTGSGEDLKNVFPPEVAVFEPSKAEIAHTQKATLVCLATGFYPDHVELSWWVNGKEVHSGVCTDPQPLKEQPALNDSRYCLSSRLRVSATFWQNPRNHFRCQVQFYGLSENDEWTQDRAKPVTQIVSAEAWGRADCGITSASYHQGVLSATILYEILLGKATLYAVLVSALVLMAMVKRKDSRGRAKRSGSGATNFSLLKQAGDVEENPGPTSMALPVTALLLPLALLLHAARPDIQMTQSPSSLSASVGDRVTITCKASQDVSTAVAWYQQKPGKAPKLLIYSASYRYTGVPDRFTGSGSGTDFTLTISSLQPEDFATYYCQQHYSTPPYTFGGGTKVEIKRGGGGSGGGGSGGGGSQVQLVQSGAEVKKPGASVKVSCKASGYAFSSSWMNWVRQAPGQGLEWIGRIYPGDGDTKYNGKFKGKATLTADKSTSTAYMELSSLRSEDTAVYYCARSTMIATGAMDYWGQGTLVTVSSTREQKLISEEDGSGIQNPDPAVYQLRDSKSSDKSVCLFTDFDSQTNVSQSKDSDVYITDKCVLDMRSMDFKSNSAVAWSNKSDFACANAFNNSIIPEDTFFPSSDVPCDVKLVEKSFETDTNLNFQNLSVIGFRILLLKVAGFNLLMTLRLWSSRAKRSGSGVKQTLNFDLLKLAGDVESNPGPSRGHMTEYKPTVRLATRDDVPRAVRTLAAAFADYPATRHTVDPDRHIERVTELQELFLTRVGLDIGKVWVADDGAAVAVWTTPESVEAGAVFAEIGPRMAELSGSRLAAQQQMEGLLAPHRPKEPAWFLATVGVSPDHQGKGLGSAVVLPGVEAAERAGVPAFLETSAPRNLPFYERLGFTVTADVEVPEGPRTWCMTRKPGA
B2: 012517-N12 (protein)
chain: MALPVTALLLPLALLLHAARPLEGKPIPNPLLGLDSTGSGEDLKNVFPPEVAVFEPSKAEIAHTQKATLVCLATGFYPDHVELSWWVNGKEVHSGVCTDPQPLKEQPALNDSRYCLSSRLRVSATFWQNPRNHFRCQVQFYGLSENDEWTQDRAKPVTQIVSAEAWGRADCGITSASYHQGVLSATILYEILLGKATLYAVLVSALVLMAMVKRKDSRGRAKRSGSGATNFSLLKQAGDVEENPGPTSMALPVTALLLPLALLLHAARPDVVMTQSPLSLPVTPGEPASISCRSSQSLVHSNGNTYLHWYLQKPGQSPQLLIYKVSNRFSGVPDRFSGSGSGTDFTLKISRVEAEDVGVYFCSQSTHVPPFTFGGGTKVEIKGGGGSGGGGSGGGGSEVQLVESGGGLVQPGGSLRLSCAASGFTFSDYYMAWVRQAPGKGLEWVADINYDGGSTYYLDSLKSRFTISRDNAKNSLYLQMNSLRAEDTAVYYCARDRGYYFDYWGQGTLVTVSSTREQKLISEEDGSGIQNPDPAVYQLRDSKSSDKSVCLFTDFDSQTNVSQSKDSDVYITDKCVLDMRSMDFKSNSAVAWSNKSDFACANAFNNSIIPEDTFFPSSDVPCDVKLVEKSFETDTNLNFQNLSVIGFRILLLKVAGFNLLMTLRLWSSRAKRSGSGVKQTLNFDLLKLAGDVESNPGPSRGHMTEYKPTVRLATRDDVPRAVRTLAAAFADYPATRHTVDPDRHIERVTELQELFLTRVGLDIGKVWVADDGAAVAVWTTPESVEAGAVFAEIGPRMAELSGSRLAAQQQMEGLLAPHRPKEPAWFLATVGVSPDHQGKGLGSAVVLPGVEAAERAGVPAFLETSAPRNLPFYERLGFTVTADVEVPEGPRTWCMTRKPGA
B3: 012517-O12 (protein)
chain: MALPVTALLLPLALLLHAARPLEGKPIPNPLLGLDSTGSGEDLKNVFPPEVAVFEPSKAEIAHTQKATLVCLATGFYPDHVELSWWVNGKEVHSGVCTDPQPLKEQPALNDSRYCLSSRLRVSATFWQNPRNHFRCQVQFYGLSENDEWTQDRAKPVTQIVSAEAWGRADCGITSASYHQGVLSATILYEILLGKATLYAVLVSALVLMAMVKRKDSRGRAKRSGSGATNFSLLKQAGDVEENPGPTSMALPVTALLLPLALLLHAARPDIQMTQSSSYLSVSLGGRVTITCKASDHINNWLAWYQQKPGNAPRLLISGATSLETGVPSRFSGSGSGKDYTLSITSLQTEDVATYYCQQYWSTPWTFGGGTKLEIKGGGGSGGGGSGGGGSQVQLQQSGAELARPGASVKLSCKASGYTFTSYWMQWVKQRPGQGLEWIGAIYPGDGDTRYTQKFKGKATLTADKSSSTAYMQLSSLASEDSAVYYCARGKVYYGSNPFAYWGQGTLVTVSATREQKLISEEDGSGIQNPDPAVYQLRDSKSSDKSVCLFTDFDSQTNVSQSKDSDVYITDKCVLDMRSMDFKSNSAVAWSNKSDFACANAFNNSIIPEDTFFPSSDVPCDVKLVEKSFETDTNLNFQNLSVIGFRILLLKVAGFNLLMTLRLWSSRAKRSGSGVKQTLNFDLLKLAGDVESNPGPSRGHMTEYKPTVRLATRDDVPRAVRTLAAAFADYPATRHTVDPDRHIERVTELQELFLTRVGLDIGKVWVADDGAAVAVWTTPESVEAGAVFAEIGPRMAELSGSRLAAQQQMEGLLAPHRPKEPAWFLATVGVSPDHQGKGLGSAVVLPGVEAAERAGVPAFLETSAPRNLPFYERLGFTVTADVEVPEGPRTWCMTRKPGA
B4: 012517-P12 (protein)
chain: MALPVTALLLPLALLLHAARPLEGKPIPNPLLGLDSTGSGEDLKNVFPPEVAVFEPSKAEIAHTQKATLVCLATGFYPDHVELSWWVNGKEVHSGVCTDPQPLKEQPALNDSRYCLSSRLRVSATFWQNPRNHFRCQVQFYGLSENDEWTQDRAKPVTQIVSAEAWGRADCGITSASYHQGVLSATILYEILLGKATLYAVLVSALVLMAMVKRKDSRGRAKRSGSGATNFSLLKQAGDVEENPGPTSMALPVTALLLPLALLLHAARPDIVMTQSHKFMSTSVGDRVSITCKASQDVSTAVAWYQQKPGQSPKLLIYSASYRYTGVPDRFTGSGSGTDFTFTISSVQAEDLAVYYCQQHYSTPPYTFGGGTKLEIKGGGGSGGGGSGGGGSQVQLQQSGPELVKPGASVKISCKASGYAFSSSWMNWVKQRPGQGLEWIGRIYPGDGDTKYNGKFKGKATLTADKSSSTAYMQLSSLTSVDSAVYFCARSTMIATGAMDYWGQGTSVTVSSTREQKLISEEDGSGIQNPDPAVYQLRDSKSSDKSVCLFTDFDSQTNVSQSKDSDVYITDKCVLDMRSMDFKSNSAVAWSNKSDFACANAFNNSIIPEDTFFPSSDVPCDVKLVEKSFETDTNLNFQNLSVIGFRILLLKVAGFNLLMTLRLWSSRAKRSGSGVKQTLNFDLLKLAGDVESNPGPSRGHMTEYKPTVRLATRDDVPRAVRTLAAAFADYPATRHTVDPDRHIERVTELQELFLTRVGLDIGKVWVADDGAAVAVWTTPESVEAGAVFAEIGPRMAELSGSRLAAQQQMEGLLAPHRPKEPAWFLATVGVSPDHQGKGLGSAVVLPGVEAAERAGVPAFLETSAPRNLPFYERLGFTVTADVEVPEGPRTWCMTRKPGA
B5: 012517-B12 (protein)
chain: MALPVTALLLPLALLLHAARPLEGKPIPNPLLGLDSTGSGEDLKNVFPPEVAVFEPSKAEIAHTQKATLVCLATGFYPDHVELSWWVNGKEVHSGVCTDPQPLKEQPALNDSRYCLSSRLRVSATFWQNPRNHFRCQVQFYGLSENDEWTQDRAKPVTQIVSAEAWGRADCGITSASYHQGVLSATILYEILLGKATLYAVLVSALVLMAMVKRKDSRGRAKRSGSGATNFSLLKQAGDVEENPGPTSMALPVTALLLPLALLLHAARPDVVMTQTPLSLSVTPGQPASISCRSSQSLVHNNGNTYLHWYLQKPGQSPQLLIYKVSNRFSGVPDRFSGSGSGTDFTLKISRVEAEDVGVYFCSQSTHVPPYTFGGGTKVEIKGGGGSGGGGSGGGGSEVQLVESGGGLVQPGGSLRLSCAASGFTFSDYYMAWVRQAPGKGLEWVAEINYDGSSTYYVDSVKGRFTISRDNAKNSLYLQMNSLRAEDTAVYYCARDRGFYFDYWGQGTTVTVSSTREQKLISEEDGSGIQNPDPAVYQLRDSKSSDKSVCLFTDFDSQTNVSQSKDSDVYITDKCVLDMRSMDFKSNSAVAWSNKSDFACANAFNNSIIPEDTFFPSSDVPCDVKLVEKSFETDTNLNFQNLSVIGFRILLLKVAGFNLLMTLRLWSSRAKRSGSGVKQTLNFDLLKLAGDVESNPGPSRGHMTEYKPTVRLATRDDVPRAVRTLAAAFADYPATRHTVDPDRHIERVTELQELFLTRVGLDIGKVWVADDGAAVAVWTTPESVEAGAVFAEIGPRMAELSGSRLAAQQQMEGLLAPHRPKEPAWFLATVGVSPDHQGKGLGSAVVLPGVEAAERAGVPAFLETSAPRNLPFYERLGFTVTADVEVPEGPRTWCMTRKPGA
B6: 012517-D12 (protein)
chain: B5 chain with N301S, N304L, Y371F, E447S, S453E, F499Y

tested on: target antigen-expressing cell line; assay: Jurkat NFAT-GFP assay, coculture with target cell lines expressing the respective target antigen (summary Table 10A); assay type: cell-based, human; design: key: The signs +/−, +, 2+ etc. after the name of the cell lines indicate the relative degree of positivity on the Jurkat-NFAT-GFP assay as measured by the % GFP positive cells; +: relative degree of positivity on the Jurkat-NFAT-GFP assay as measured by the % GFP positive cells; 2+: relative degree of positivity on the Jurkat-NFAT-GFP assay as measured by the % GFP positive cells; conditions: coculture with L363 cells
Summary of the method: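 Jurkat cells carrying an NFAT-site IL-2 promoter driving GFP were lentivirally transduced with SIRs, puromycin-selected, then cocultured with antigen-expressing target cells at E:T about 1:2 for about 4–18 hours. GFP induction was read by flow cytometry as % GFP-positive cells versus parental Jurkat-NFAT-GFP.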

Molecule	NFAT-GFP ASSAY Positive Cell lines
B1	(+)
B2	+
B3	+/−
B4	(+/−)
B5	+
B6	U266 (+), L363 (+)

same assay, conditions: coculture with U266 cells

Molecule	NFAT-GFP ASSAY Positive Cell lines
B1	U266 (+/−), L363
B2	2+
B3	+
B4	U266 (+/−), L363
B5	2+
B6	U266 (+), L363 (+)

Source: patent US12269859B2, “Synthetic immune receptors and methods of use thereof” (Angeles Therapeutics, Inc., priority 2016, dated 2025)
